These results are taken from patent US20200179510A1 (YALE UNIVERSITY, published 2020).

The target of the test is T1, Recombinant mouse DKK1 protein (R&D) (mouse, UniProt O54908 32-272, limits assumed).
T1 construct: Bought recombinant protein, coated on the ELISA plate at 20 ng/ml
T1 sequence (looked up): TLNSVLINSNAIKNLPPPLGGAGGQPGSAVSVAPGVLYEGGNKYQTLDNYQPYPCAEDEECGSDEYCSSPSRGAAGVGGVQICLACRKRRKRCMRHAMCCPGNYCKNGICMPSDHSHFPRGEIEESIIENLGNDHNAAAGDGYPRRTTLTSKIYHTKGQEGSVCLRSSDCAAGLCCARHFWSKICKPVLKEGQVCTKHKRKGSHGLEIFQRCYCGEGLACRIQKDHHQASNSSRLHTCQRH
Description: ELISA, recombinant mouse DKK1 coated at 20 ng/ml. On the procedure: Recombinant mouse DKK2 or DKK1 protein (20 ng/ml, R&D) in a blocking buffer (1% BSA in PBS) was incubated in a 384-well microtiter plate for overnight at 4° C. The plate was washed with PBS twice and incubated with the blocking buffer for one hour at room temperature. The plate was then incubated with the anti-DKK2 5F8 antibody in the blocking buffer for 1 hour at room temperature. After repeatedly washing, the plate was incubated with an HRP-conjugated secondary antibody for 1 hour at room temperature. A chemiluminance substrate (Thermo Fisher 37070) was added to the plate, and the plate was read by an EnVision plate reader.

B1: Mouse monoclonal antibody to DKK2 (5F8) (antibody, V domains shown)
VH: GAELVRPGASVKLSCKASGYSFTNYWMNWVKQRPGQGLEWIGMIHPSDSETRLNQKFKDKATLTVDKSSSTAYMQLSSPTSEDSAVYYCAREGRLGLRSYAMDYWGQGTSVTVSS
VL: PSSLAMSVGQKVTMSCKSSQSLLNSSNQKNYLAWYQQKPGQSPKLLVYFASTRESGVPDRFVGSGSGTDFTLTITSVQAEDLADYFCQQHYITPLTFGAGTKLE
notes: Mouse hybridoma antibody; IgG3 served as its isotype control; also called anti-DKK2 5F8 antibody; anti-DKK2 antibody 5F8
As for B1, the binding result was “no binding”.
